Values quoted from earlier work as cited in article PMC3977038.

Target: FcεRIα (Homo sapiens) (UniProt P12319)
Sequence (P12319 26-257): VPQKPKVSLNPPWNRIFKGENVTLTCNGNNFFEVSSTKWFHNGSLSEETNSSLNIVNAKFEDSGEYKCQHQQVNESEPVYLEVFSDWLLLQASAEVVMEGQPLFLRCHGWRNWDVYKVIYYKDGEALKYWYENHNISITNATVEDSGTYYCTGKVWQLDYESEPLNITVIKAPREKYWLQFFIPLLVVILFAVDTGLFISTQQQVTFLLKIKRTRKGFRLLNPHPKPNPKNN

Sequence of IgE-Fc Fc (P01854 105-426): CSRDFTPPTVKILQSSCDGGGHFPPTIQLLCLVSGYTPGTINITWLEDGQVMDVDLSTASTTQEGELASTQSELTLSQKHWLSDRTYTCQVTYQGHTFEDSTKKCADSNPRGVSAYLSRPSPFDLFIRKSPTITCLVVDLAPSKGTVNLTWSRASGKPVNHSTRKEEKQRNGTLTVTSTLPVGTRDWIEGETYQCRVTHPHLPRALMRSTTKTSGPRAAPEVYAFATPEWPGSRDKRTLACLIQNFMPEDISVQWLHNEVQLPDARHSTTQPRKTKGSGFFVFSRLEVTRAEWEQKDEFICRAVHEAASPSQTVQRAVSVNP

Kd: 0.1 nM
Substance: IgE-Fc Fc (from UniProt P01854)
